According to paper PMC10062032 (ACS Nano, 2023):

Molecular target: T1, Methylococcus capsulatus (Bath) soluble methane monooxygenase hydroxylase (sMMOH), alpha subunit (Methylococcus capsulatus (Bath), UniProt P22869 1-527)
T1 sequence (looked up): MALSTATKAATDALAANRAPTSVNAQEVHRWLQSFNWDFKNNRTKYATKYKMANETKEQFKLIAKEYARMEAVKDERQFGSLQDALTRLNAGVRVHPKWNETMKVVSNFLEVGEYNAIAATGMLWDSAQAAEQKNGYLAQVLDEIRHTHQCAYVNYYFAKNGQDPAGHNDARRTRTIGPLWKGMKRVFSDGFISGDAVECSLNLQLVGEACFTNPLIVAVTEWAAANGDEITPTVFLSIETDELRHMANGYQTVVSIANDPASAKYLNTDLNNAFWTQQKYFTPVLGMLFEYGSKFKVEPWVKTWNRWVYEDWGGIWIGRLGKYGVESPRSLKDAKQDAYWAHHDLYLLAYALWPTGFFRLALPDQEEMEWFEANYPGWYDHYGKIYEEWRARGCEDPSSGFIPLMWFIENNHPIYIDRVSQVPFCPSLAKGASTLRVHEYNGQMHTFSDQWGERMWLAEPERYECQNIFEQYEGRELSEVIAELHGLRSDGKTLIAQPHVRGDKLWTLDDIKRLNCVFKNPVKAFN
Assay: cryo-EM structure

binding result: binds
B1: Methylococcus capsulatus (Bath) soluble methane monooxygenase hydroxylase (sMMOH), beta subunit (natural protein, UniProt P18798 1-389, looked up)
chain: MSMLGERRRGLTDPEMAAVILKALPEAPLDGNNKMGYFVTPRWKRLTEYEALTVYAQPNADWIAGGLDWGDWTQKFHGGRPSWGNETTELRTVDWFKHRDPLRRWHAPYVKDKAEEWRYTDRFLQGYSADGQIRAMNPTWRDEFINRYWGAFLFNEYGLFNAHSQGAREALSDVTRVSLAFWGFDKIDIAQMIQLERGFLAKIVPGFDESTAVPKAEWTNGEVYKSARLAVEGLWQEVFDWNESAFSVHAVYDALFGQFVRREFFQRLAPRFGDNLTPFFINQAQTYFQIAKQGVQDLYYNCLGDDPEFSDYNRTVMRNWTGKWLEPTIAALRDFMGLFAKLPAGTTDKEEITASLYRVVDDWIEDYASRIDFKADRDQIVKAVLAGLK
